Tests used:
soluble KIR3DL1*001-Fc [1] = biological target: T1, soluble KIR3DL1*001-Fc (human, UniProt P43629 22-340); experiment: BLI (Forte-Bio), partial fit, IgG
T1 construct: also called KIR3DL1 allele 001; KIR3DL1 allele-001 antigen; not shown: Fc domain

soluble KIR3DL1*002-Fc [2] = biological target: T2, soluble KIR3DL1*002-Fc (human, UniProt P43629 22-338); experiment: SPR (BIACORE T-100)
T2 construct: also called KIR3DL1 allele 002; Allele 002; not shown: Fc domain

soluble KIR3DL1*001-Fc [3] = biological target: T1, soluble KIR3DL1*001-Fc; experiment: SPR (BIACORE T-100)
soluble KIR3DL1*033-Fc [4] = biological target: T3, soluble KIR3DL1*033-Fc (human, UniProt P43629 22-340); experiment: SPR (BIACORE T-100)
T3 construct: also called KIR3DL1 allele 033; Allele 033; not shown: Fc domain

soluble KIR3DL1*002-Fc [5] = biological target: T2, soluble KIR3DL1*002-Fc; experiment: SPR (BIACORE T-100), kinetics
soluble KIR3DL1*002-Fc [6] = biological target: T2, soluble KIR3DL1*002-Fc; experiment: BLI (ForteBio QK), hIgG1
soluble KIR3DL1*001-Fc [7] = biological target: T1, soluble KIR3DL1*001-Fc; experiment: BLI (ForteBio QK), hIgG1
soluble KIR3DL1*020-Fc = biological target: T4, soluble KIR3DL1*020-Fc (human, UniProt P43629 22-339); experiment: BLI (ForteBio QK), hIgG1
T4 construct: also called KIR3DL1 allele 020; CD158e allele 020; not shown: Fc domain

soluble KIR3DL1*033-Fc [8] = biological target: T3, soluble KIR3DL1*033-Fc; experiment: BLI (ForteBio QK), hIgG1
[9] = biological target: T5, soluble KIR3DL1*007/015-Fc (human, UniProt P43629 22-338); experiment: BLI (ForteBio QK), hIgG1
T5 construct: also called KIR3DL1 allele 007/015; CD158e allele 007/015; not shown: Fc domain

soluble KIR3DL1*002-Fc [10] = biological target: T2, soluble KIR3DL1*002-Fc; experiment: SPR (BIACORE T-100), kinetics; Biacore T-100, allele 002
soluble KIR3DL1*001-Fc [11] = biological target: T1, soluble KIR3DL1*001-Fc; experiment: BLI (ForteBio QK), hIgG1; ForteBio, hIgG1, allele 001 (Table 2)

T5 sequence (P43629 other isoform, or with tags, fused parts or gaps): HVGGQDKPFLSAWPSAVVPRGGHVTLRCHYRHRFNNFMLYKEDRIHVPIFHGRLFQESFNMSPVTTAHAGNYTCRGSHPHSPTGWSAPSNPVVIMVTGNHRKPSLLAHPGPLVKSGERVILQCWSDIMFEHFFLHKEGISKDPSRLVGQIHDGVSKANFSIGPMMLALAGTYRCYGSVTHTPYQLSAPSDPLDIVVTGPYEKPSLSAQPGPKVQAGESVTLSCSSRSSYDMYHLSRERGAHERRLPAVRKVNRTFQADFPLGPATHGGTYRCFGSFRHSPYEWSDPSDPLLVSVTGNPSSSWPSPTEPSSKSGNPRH
T3 sequence (P43629 other isoform, or with tags, fused parts or gaps): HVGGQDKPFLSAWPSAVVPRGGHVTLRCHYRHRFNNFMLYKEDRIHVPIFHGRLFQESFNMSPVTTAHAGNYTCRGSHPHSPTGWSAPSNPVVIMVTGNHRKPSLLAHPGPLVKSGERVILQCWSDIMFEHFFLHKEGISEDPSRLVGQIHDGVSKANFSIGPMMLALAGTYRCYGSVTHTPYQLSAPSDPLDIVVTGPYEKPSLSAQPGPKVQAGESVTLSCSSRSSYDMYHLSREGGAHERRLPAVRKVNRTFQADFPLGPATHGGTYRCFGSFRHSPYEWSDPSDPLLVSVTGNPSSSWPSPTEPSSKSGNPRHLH
T4 sequence (P43629 other isoform, or with tags, fused parts or gaps): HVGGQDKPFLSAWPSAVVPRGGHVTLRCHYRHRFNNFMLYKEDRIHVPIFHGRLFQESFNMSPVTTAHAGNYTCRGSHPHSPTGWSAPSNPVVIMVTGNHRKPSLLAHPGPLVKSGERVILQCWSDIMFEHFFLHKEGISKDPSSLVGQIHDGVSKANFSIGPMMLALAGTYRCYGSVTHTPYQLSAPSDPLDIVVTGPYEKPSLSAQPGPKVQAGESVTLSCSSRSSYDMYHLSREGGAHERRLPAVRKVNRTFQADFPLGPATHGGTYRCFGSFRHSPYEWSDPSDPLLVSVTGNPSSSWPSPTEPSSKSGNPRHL

Row | Binder | Kd (soluble KIR3DL1*001-Fc [1]) [nM] | koff (soluble KIR3DL1*001-Fc [1]) [s⁻¹] | kon (soluble KIR3DL1*001-Fc [1]) [M⁻¹ s⁻¹] | Kd (soluble KIR3DL1*002-Fc [2]) [nM] | Kd (soluble KIR3DL1*001-Fc [3]) [nM] | Kd (soluble KIR3DL1*033-Fc [4]) [nM] | Kd (soluble KIR3DL1*002-Fc [5]) [nM] | koff (soluble KIR3DL1*002-Fc [5]) [s⁻¹] | kon (soluble KIR3DL1*002-Fc [5]) [M⁻¹ s⁻¹] | Kd (soluble KIR3DL1*002-Fc [6]) [nM] | Kd (soluble KIR3DL1*001-Fc [7]) [nM] | Kd (soluble KIR3DL1*020-Fc) [nM] | Kd (soluble KIR3DL1*033-Fc [8]) [nM] | Kd [9] [nM] | Kd (soluble KIR3DL1*002-Fc [10]) [nM] | Kd (soluble KIR3DL1*001-Fc [11]) [nM]
1 | ET160-74 (antibody, human IgG1, V domains shown, Tested as human IgG1 (hIgG1), lambda light chain) VH: QVQLVQSGAEVKKPGSSVKVSCKASGGTFSSYAISWVRQAPGQGLEWMGWMNPNSGNTGYAQKFQGRVTMTRNTSISTAYMELSSLRSEDTAVYYCARYSFHLDGWGQGTLVTVSS VL: QSVLTQPPSVSAAPGQKVTISCSGSSSNVGNNYVSWYQQVPGTAPKLLIYDNNRRPSGIPDRFSGSKSGTSATLGITGLQTGDEADYYCGTWDNSLRVELFGGGTKVTVLG | 13.3 | 0.00161 | 122000 | 108 | 11.9 | 62.2 | 108 | 0.0112 | 103000 | 8.6 | 13.3 | 11.2 | 11 | 10.1 |  | 
2 | ET160-72 (antibody, human IgG1, V domains shown, Tested as human IgG1 (hIgG1), lambda light chain) VH: QVQLVQSGGGVVRSGGSLRLTCAASGFTFGDYGMSWVRQAPGKGLEWVSGINWNGGGTGYADSVKGRFTISRDNAKDSLYLQMNSLRAEDTALYYCARVWGCGSTTCYEGADDAFDIWGQGTMVTVSS VL: LPVLTQPPSISGAPRQRVTISCSGARSNIGNNAVNWYQQVPGEAPKLLIFYDDQQPSGISGRFSGSKSGTSASLAISGLQSEDEADYYCAAWDDSLNGWVFGGGTKLTVLG | 15.8 | 0.00212 | 134000 | 316 | 182 | 138 | 316 | 0.0159 | 50500 | 11.6 | 15.8 | 11.4 | 15.4 | 11.6 |  | 
3 | ET160-61 (antibody, human IgG1, V domains shown, Tested as human IgG1 (hIgG1), lambda light chain) VH: QVQLVESGGGLVQPGRSLRLSCAASGFTFDDYAMHWVRQAPGKGLEWVSGISWNSGSIGYADSVKGRFTISRDNAKNSLYLQMNSLRAEDTAVYYCASSLRYFEWPIDYWGQGTLVTVSS VL: NFMLTQPLSVSESPGKTVTISCTANGGSLASKYVQWFQQRPGSSPTTVIYDDNLRPSGVPDRFSGSIDTSSNSAALTISGLKTEDEADYYCQSYDNSSVVFGGGTKLTVLG | 15.1 | 0.00193 | 127000 | 27.7 | 45.9 | 10.8 | 27.7 | 0.00232 | 84000 | 21.7 | 15.1 | 19.4 | 22.7 | 4.1 |  | 
4 | ET160-77 (antibody, human IgG1, V domains shown, Tested as human IgG1 (hIgG1), lambda light chain) VH: EVQLVETGGGLVKPGGSLRLSCAASGFTFSDYYMSWIRQAPGKGLEWVSYISSSSSYTNYADSVKGRFTISRDNAKNSLYLQMNSLRAEDTAVYYCAREGIAAADAFDIWGQGTMVTVSS VL: SYELTQPPSVSVAPGQAATITCAGDNIESKSVNWYQQKPGQAPVLVVYDDTVRPSGIPERFSGSNSGNPATLTISRSEAGDEADYYCQVWDNRRDHVVFGGGTKVTVLG | 13.9 | 0.00222 | 160000 | 197 | 53.1 | 48.3 | 197 | 0.00987 | 50000 | 10.9 | 13.9 | 10.5 | 13.1 | 11.4 |  | 
5 | ET160-42 (antibody, human IgG1, V domains shown, Tested as human IgG1 (hIgG1), lambda light chain; Clone from a human scFv phage display library) VH: not shown VL: QSALTQPASVSGSPGQSITISCTGTSSDVGGYNYVSWYQQHPGKAPKLMIYDVSNRPSGVSNRFSGSKSGNTASLTISGLQAEDEADYYCSSYTSSNTLVFGTGTKVTVLG |  | 0.00221 | 172000 | 93.5 | 89.5 | 75.2 | 93.5 | 0.0171 | 183000 | 8.5 |  | 10.1 | 10.3 | 8.4 | 93.5 | 12.9
6 | ET160-73 (antibody, human IgG1, V domains shown, Tested as human IgG1 (hIgG1), kappa light chain) VH: QVQLVQSGAEVKKPGESLKISCKGSGYSFTSYWIGWVRQMPGKGLEWMGIIYPGDSDTRYSPSFQGQVTISADKSISTAYLQWSSLKASDTAMYYCARGREQLWLDGMDVWGQGTTVTVSS VL: DVVMTQSPLSLPVTLGQPASISCRSTQSLVHSDGNTYLNWFQQRPGQSPRRLIYGVSNRDFGVPDRFSASGSGTDFTLKINRVEAEDVGVYYCMQGTHWPLTFGQGTKVEIKR | 21.2 | 0.00302 | 143000 | 124 | 136 | 55.6 | 124 | 0.00481 | 38900 | 16.3 | 21.2 | 15.7 | 14.4 | 16.1 |  | 
